Common to all, as to assay: Mass spectroscopy proteomics, semi-quantitative binding affinity of serum proteins (plaqueproteome, Table 2)
Conditions in all cases: higher number = stronger affinity

The subject of assay [1] is High Density cholesterol (Chl Large) plaque particles. More on the design: species or system human. The method in brief: (§1)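 Serum or plasma from atherosclerotic subjects, diluted to 50% in PBS, was incubated with cholesterol aggregates (30 μg per 1 mL reaction) at 37° C for 1 hr. Small and large cholesterol plaque particles were sorted by flow cytometry gating, trypsin-digested and analysed by MS/MS against a human UniProt database.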

For assay [2], the system named is Low density cholesterol (Chl small) plaque particles. More on the design: species or system human. The method in brief: as §1
The target of assay [3] is T1, alpha-synuclein plaque particles (Homo sapiens, UniProt P37840).
T1 construct: 140 amino acids polypeptide
The gist of the method:
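AD-subject plasma or serum (800 μL of 50%) mixed with 30 μg preformed alpha-synuclein aggregates for 1 h at 37 °C; Thioflavin S-positive particles isolated by flow sorting. After reduction, acrylamide alkylation and overnight tryptic digestion, serum proteins identified by MS/MS with Sequest and Scaffold.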

In a further assay the test system is Tau plaque particles. More on the design: species or system human. The method in brief: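 Synthetic Tau-74 and Tau-275 peptides (1 mg/mL PBS, 37° C, 2 h) aggregated; 30 μg aggregates incubated with 50% serum/plasma 1 h at 37° C, stained with Thioflavin S, and plaque particles sorted by flow cytometry. Bound proteins trypsin-digested and identified by MS/MS against human UniProt.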

Assay [4] deals with T2, Abeta-42 plaque particles (Homo sapiens, UniProt P05067).
T2 construct: Abeta 1-42
The method in brief:
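AD patient serum or plasma (50% in PBS) was incubated with Abeta-42 aggregates (30 μg) for 1 h at 37 °C, then stained with Thioflavin S for 30 min. Labeled particles were FACS-sorted, trypsin/Lys-C digested overnight and analyzed by MS/MS. Sequest searched human UniProt; Scaffold/Protein Prophet validated the identifications.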

B1: Carboxypeptidase N catalytic chain (protein)
chain: VTFRHHRYDDLVRTLYKVQNECPGITRVYSIGRSVEGRHLYVLEFSDHPGIHEPLEPEVKYVGNMHGNEALGRELMLQLSEFLCEEFRNRNQRIVQLIQDTRIHILPSMNPDGYEVAAAQGPNKPGYLVGRNNANGVDLNRNFPDLNTYIYYNEKYGGPNHHLPLPDNWKSQVEPETRAVIRWMHSFNFVLSANLHGGAVVANYPYDKSFEHRVRGVRRTASTPTPDDKLFQKLAKVYSYAHGWMFQGWNCGDYFPDGITNGASWYSLSKGMQDFNYLHTNCFEITLELSCDKFPPEEELQREWLGNREALIQFLEQVHQGIKGMVLDENYNNLANAVISVSGINHDVTSGDHGDYFRLLLPGIYTVSATAPGYDPETVTVTVGPAEPTLVNFHLKRSIPQVSPVRRAPSRRHGVRAKVQPQARKKEMEMRQLQRGPA
On to B1, for which the “Semi-quantitative analysis of proteins binding to different plaque particles: Chl Large” value in assay [1] is 0. For the same molecule, in assay [2], the “Semi-quantitative analysis of proteins binding to different plaque particles: Chl small” value was determined as 0. Besides, in assay [3], the “Semi-quantitative analysis of proteins binding to different plaque particles: Synuclein” value is 0. The “Semi-quantitative analysis of proteins binding to different plaque particles: Tau” value in the assay with Tau plaque particles is 1. The “Semi-quantitative analysis of proteins binding to different plaque particles: Abeta-42” value in assay [4] came out at 0.

B2: Apolipoprotein M (protein)
chain: MFHQIWAALLYFYGIILNSIYQCPEHSQLTTLGVDGKEFPEVHLGQWYFIAGAAPTKEELATFDPVDNIVFNMAAGSAPMQLHLRATIRMKDGLCVPRKWIYHLTEGSTDLRTEGRPDMKTELFSSSCPGGIMLNETGQGYQRFLLYNRSPHPPEKCVEEFKSLTSCLDSKAFLLTPRNQEACELSNN
Consider B2, for which, in assay [1], the “Semi-quantitative analysis of proteins binding to different plaque particles: Chl Large” value worked out at 0. Besides, the “Semi-quantitative analysis of proteins binding to different plaque particles: Chl small” value in assay [2] worked out at 0. In addition, the “Semi-quantitative analysis of proteins binding to different plaque particles: Synuclein” value in assay [3] came out at 0. Further, the “Semi-quantitative analysis of proteins binding to different plaque particles: Tau” value with Tau plaque particles was determined as 0. Also, the “Semi-quantitative analysis of proteins binding to different plaque particles: Abeta-42” value in assay [4] came out at 18.

B3: Isoform 2 of Haptoglobin-related protein (protein)
chain: MHVCVCVCVCVYMPVCVDACMCCEAGRPAFRSFLFSLCSDLGAVISLLLWGRQLFALYSGNDVTDISDDRFPKPPEIANGYVEHLFRYQCKNYYRLRTEGDGVYTLNDKKQWINKAVGDKLPECEAVCGKPKNPANPVQRILGGHLDAKGSFPWQAKMVSHHNLTTGATLINEQWLLTTAKNLFLNHSENATAKDIAPTLTLYVGKKQLVEIEKVVLHPNYHQVDIGLIKLKQKVLVNERVMPICLPSKNYAEVGRVGYVSGWGQSDNFKLTDHLKYVMLPVADQYDCITHYEGSTCPKWKAPKSPVGVQPILNEHTFCVGMSKYQEDTCYGDAGSAFAVHDLEEDTWYAAGILSFDKSCAVAEYGVYVKVTSIQHWVQKTIAEN
In the case of B3, the “Semi-quantitative analysis of proteins binding to different plaque particles: Chl Large” value in assay [1] was 15. Besides, in assay [2], the “Semi-quantitative analysis of proteins binding to different plaque particles: Chl small” value was found to be 12. Further, the “Semi-quantitative analysis of proteins binding to different plaque particles: Synuclein” value in assay [3] turned out to be 14. The “Semi-quantitative analysis of proteins binding to different plaque particles: Tau” value in the assay on Tau plaque particles is recorded as 11. Besides, in assay [4], the “Semi-quantitative analysis of proteins binding to different plaque particles: Abeta-42” value worked out at 11.

B4: Catalase (protein)
chain: ADSRDPASDQMQHWKEQRAAQKADVLTTGAGNPVGDKLNVITVGPRGPLLVQDVVFTDEMAHFDRERIPERVVHAKGAGAFGYFEVTHDITKYSKAKVFEHIGKKTPIAVRFSTVAGESGSADTVRDPRGFAVKFYTEDGNWDLVGNNTPIFFIRDPILFPSFIHSQKRNPQTHLKDPDMVWDFWSLRPESLHQVSFLFSDRGIPDGHRHMNGYGSHTFKLVNANGEAVYCKFHYKTDQGIKNLSVEDAARLSQEDPDYGIRDLFNAIATGKYPSWTFYIQVMTFNQAETFPFNPFDLTKVWPHKDYPLIPVGKLVLNRNPVNYFAEVEQIAFDPSNMPPGIEASPDKMLQGRLFAYPDTHRHRLGPNYLHIPVNCPYRARVANYQRDGPMCMQDNQGGAPNYYPNSFGAPEQQPSALEHSIQYSGEVRRFNTANDDNVTQVRAFYVNVLNEEQRKRLCENIAGHLKDAQIFIQKKAVKNFTEVHPDYGSHIQALLDKYNAEKPKNAIHTFVQSGSHLAAREKANL
B4: the “Semi-quantitative analysis of proteins binding to different plaque particles: Chl Large” value in assay [1] is 0. Moreover, the “Semi-quantitative analysis of proteins binding to different plaque particles: Chl small” value in assay [2] was found to be 0. In addition, the “Semi-quantitative analysis of proteins binding to different plaque particles: Synuclein” value in assay [3] was 0. Further, the “Semi-quantitative analysis of proteins binding to different plaque particles: Tau” value in the assay on Tau plaque particles worked out at 0. Further, the “Semi-quantitative analysis of proteins binding to different plaque particles: Abeta-42” value in assay [4] worked out at 12.

B5: Guanine deaminase (protein)
chain: MCAAQMPPLAHIFRGTFVHSTWTCPMEVLRDHLLGVSDSGKIVFLEEASQQEKLAKEWCFKPCEIRELSHHEFFMPGLVDTHIHASQYSFAGSSIDLPLLEWLTKYTFPAEHRFQNIDFAEEVYTRVVRRTLKNGTTTACYFATIHTDSSLLLADITDKFGQRAFVGKVCMDLNDTFPEYKETTEESIKETERFVSEMLQKNYSRVKPIVTPRFSLSCSETLMGELGNIAKTRDLHIQSHISENRDEVEAVKNLYPSYKNYTSVYDKNNLLTNKTVMAHGCYLSAEELNVFHERGASIAHCPNSNLSLSSGFLNVLEVLKHEVKIGLGTDVAGGYSYSMLDAIRRAVMVSNILLINKVNEKSLTLKEVFRLATLGGSQALGLDGEIGNFEVGKEFDAILINPKASDSPIDLFYGDFFGDISEAVIQKFLYLGDDRNIEEVYVGGKQVVPFSSSVKETIHLPASSPHPPPFP
On to B5, for which, in assay [1], the “Semi-quantitative analysis of proteins binding to different plaque particles: Chl Large” value amounted to 0. In addition, the “Semi-quantitative analysis of proteins binding to different plaque particles: Chl small” value in assay [2] stood at 0. Further, the “Semi-quantitative analysis of proteins binding to different plaque particles: Synuclein” value in assay [3] turned out to be 0. For the same molecule, the “Semi-quantitative analysis of proteins binding to different plaque particles: Tau” value in the assay on Tau plaque particles is 0. In addition, the “Semi-quantitative analysis of proteins binding to different plaque particles: Abeta-42” value in assay [4] was 5.

B6: Peroxiredoxin-1 (protein)
chain: SSGNAKIGHPAPNFKATAVMPDGQFKDISLSDYKGKYVVFFFYPLDFTFVCPTEIIAFSDRAEEFKKLNCQVIGASVDSHFCHLAWVNTPKKQGGLGPMNIPLVSDPKRTIAQDYGVLKADEGISFRGLFIIDDKGILRQITVNDLPVGRSVDETLRLVQAFQFTDKHGEVCPAGWKPGSDTIKPDVQKSKEYFSKQK
As to B6, in assay [1], the “Semi-quantitative analysis of proteins binding to different plaque particles: Chl Large” value came out at 0. Further, in assay [2], the “Semi-quantitative analysis of proteins binding to different plaque particles: Chl small” value turned out to be 0. Besides, the “Semi-quantitative analysis of proteins binding to different plaque particles: Synuclein” value in assay [3] was determined as 0. For the same molecule, in the assay with Tau plaque particles, the “Semi-quantitative analysis of proteins binding to different plaque particles: Tau” value is 0. Also, in assay [4], the “Semi-quantitative analysis of proteins binding to different plaque particles: Abeta-42” value turned out to be 5.
